# Source: patent publication US20220226454A1 (KEYSTONE BIO, published 2022)
# Columns and labels:
# [1] = biological target: T1, recombinant GST-gingipain rGP-1 fusion protein; assay: ELISA, wells coated with rGP-1 and probed with varying concentrations of KB001
# T1 construct: also called GST-Gp; GST-Gingipain recombinant protein
# [2] = biological target: whole bacterial cells of P. gingivalis (Porphyromonas gingivalis)
binder,measurement,setting,value
"KB-001 mouse monoclonal antibody (antibody, V domains shown, also called Pg/gingipain antibody) VH: EVQLKQSGPGLVAPSQSLSITCTVSGFSLSIYSVHWVRQPPGKGLEWLGMIWGGGSSDYNSALKSRLSISKDNSKSQVFLKMNSLQTDDTAMYYCARNGNFYAMDYWGQGTSVTVSS VL: QIVLTQSPAIMSASLGERVTMTCTASSSVSSSFLHWYQQKPGSSPQLWIYSTSNLASGVPARFSGSGSGTSYSLTISSMEAEDAATYYCHQYHHSPYIYTFGGGTKLEIKR",binding result,[1],binds
same,Kd,[2],11.4 nM
